Measured values reported in patent US20240400708A1.
Changes are numbered by the printed parent chain. Numbers in names are those of the source.

B1: feline IgG1a mutant ID No. 351: S252Y, S428M, S434F, Q311W (antibody, part only; not given: Variable domains, not shown: another chain or arm of the molecule)
constant: ASTTAPSVFPLAPSCGTTSGATVALACLVLGYFPEPVTVSWNSGALTSGVHTFPAVLQASGLYSLSSMVTVPSSRWLSDTFTCNVAHPPSNTKVDKTVRKTDHPPGPKPCDCPKCPPPEMLGGPSIFIFPPKPKDTLYISRTPEVTCLVVDLGPDDSDVQITWFVDNTQVYTAKTSPREEQFNSTYRVVSVLPILHWDWLKGKEFKCKVNSKSLPSPIERTISKAKGQPHEPQVYVLPPAQEELSRNKVSVTCLIKSFHPPDIAVEWEITGQPEPENNYRTTPPQLDSDGTYFVYSKLSVDRSHWQRGNTYTCSVMHEALHFHHTQKSLTQSPGK
B2: feline IgG1a mutant ID No. 352: S252Y, S428M, S434F, Q311Y (antibody, part only; not given: Variable domains, not shown: another chain or arm of the molecule)
constant: B1 constant with W197Y
B3: feline IgG1a mutant ID No. 359: S252Y, S434R, D312A (antibody, part only; not given: variable domains and light chain, not shown: another chain or arm of the molecule)
constant: B1 constant with W197Q, D198A, M316S, F322R
B4: feline IgG1a mutant ID No. 378: S252Y, S434R, T403R (antibody, part only; not given: Variable domains, not shown: another chain or arm of the molecule)
constant: B1 constant with W197Q, T291R, M316S, F322R
B5: feline IgG1a mutant ID No. 354: S252Y, S428M, S434F, T250Q (antibody, part only; not given: variable domains and light chain, not shown: another chain or arm of the molecule)
constant: B1 constant with T136Q, W197Q
B6: feline IgG1a mutant ID No. 375: S252Y, S434R, S254V (antibody, part only; not given: Variable domains, not shown: another chain or arm of the molecule)
constant: B1 constant with S140V, W197Q, M316S, F322R
B7: feline IgG1a mutant ID No. 356: S252Y, S428M, S434F, T403R (antibody, part only; not given: Variable domains, not shown: another chain or arm of the molecule)
constant: B1 constant with W197Q, T291R
B8: feline IgG1a mutant ID No. 367: S252Y, S434R, G402R (antibody, part only; not given: Variable domains, not shown: another chain or arm of the molecule)
constant: B1 constant with W197Q, G290R, M316S, F322R
B9: feline IgG1a mutant ID No. 361: S252Y, S434R, D312P (antibody, part only; not given: Variable domains, not shown: another chain or arm of the molecule)
constant: B1 constant with W197Q, D198P, M316S, F322R
B10: feline IgG1a mutant ID No. 364: S252Y, S434R, D401R (antibody, part only; not given: Variable domains, not shown: another chain or arm of the molecule)
constant: B1 constant with W197Q, D289R, M316S, F322R
B11: feline IgG1a mutant ID No. 371: S252Y, S434R, Q311K (antibody, part only; not given: Variable domains, not shown: another chain or arm of the molecule)
constant: B1 constant with W197K, M316S, F322R
B12: feline IgG1a mutant ID No. 377: S252Y, S434R, T256M (antibody, part only; not given: Variable domains, not shown: another chain or arm of the molecule)
constant: B1 constant with T142M, W197Q, M316S, F322R
B13: feline IgG1a mutant ID No. 376: S252Y, S434R, T250Q (antibody, part only; not given: Variable domains, not shown: another chain or arm of the molecule)
constant: B1 constant with T136Q, W197Q, M316S, F322R
B14: feline IgG1a mutant ID No. 373: S252Y, S434R, Q311R (antibody, part only; not given: Variable domains, not shown: another chain or arm of the molecule)
constant: B1 constant with W197R, M316S, F322R
B15: feline IgG1a mutant ID No. 363: S252Y, S434R, D399T (antibody, part only; not given: Variable domains, not shown: another chain or arm of the molecule)
constant: B1 constant with W197Q, D287T, M316S, F322R
B16: feline IgG1a mutant ID No. 368: S252Y, S434R, L314K (antibody, part only; not given: Variable domains, not shown: another chain or arm of the molecule)
constant: B1 constant with W197Q, L200K, M316S, F322R
B17: feline IgG1a mutant ID No. 370: S252Y, S434R, Q311H (antibody, part only; not given: variable domains and light chain, not shown: another chain or arm of the molecule)
constant: B1 constant with W197H, M316S, F322R
B18: feline IgG1a mutant ID No. 355: S252Y, S428M, S434F, T256M (antibody, part only; not given: variable domains and light chain, not shown: another chain or arm of the molecule)
constant: B1 constant with T142M, W197Q
B19: feline IgG1a mutant ID No. 369: S252Y, S434R, P247L (antibody, part only; not given: Variable domains, not shown: another chain or arm of the molecule)
constant: B1 constant with P133L, W197Q, M316S, F322R
B20: feline IgG1a mutant ID No. 374: S252Y, S434R, Q311Y (antibody, part only; not given: Variable domains, not shown: another chain or arm of the molecule)
constant: B1 constant with W197Y, M316S, F322R
B21: feline IgG1a mutant ID No. 360: S252Y, S434R, D312H (antibody, part only; not given: Variable domains, not shown: another chain or arm of the molecule)
constant: B1 constant with W197Q, D198H, M316S, F322R
B22: feline IgG1a mutant ID No. 372: S252Y, S434R, Q311M (antibody, part only; not given: Variable domains, not shown: another chain or arm of the molecule)
constant: B1 constant with W197M, M316S, F322R
B23: feline IgG1a mutant ID No. 362: S252Y, S434R, D399M (antibody, part only; not given: Variable domains, not shown: another chain or arm of the molecule)
constant: B1 constant with W197Q, D287M, M316S, F322R
B24: feline IgG1a Fc mutant Q311K, S428L (antibody, part only; not given: variable domains and light chain, not shown: another chain or arm of the molecule; small tags and cut ends)
constant: B1 constant with Y138S, W197K, M316L, F322S
B25: feline IgG1a Fc mutant Q311L, S428L (antibody, part only; not given: Variable domains, not shown: another chain or arm of the molecule; small tags and cut ends)
constant: B1 constant with Y138S, W197L, M316L, F322S
B26: feline IgG1a Fc mutant Q311Y, S428M (antibody, part only; not given: Variable domains, not shown: another chain or arm of the molecule; small tags and cut ends)
constant: B1 constant with Y138S, W197Y, F322S
B27: feline IgG1a Fc mutant Q311K, S428M (antibody, part only; not given: Variable domains, not shown: another chain or arm of the molecule; small tags and cut ends)
constant: B1 constant with Y138S, W197K, F322S
B28: feline IgG1a Fc mutant S428M, S434H (antibody, part only; not given: Variable domains, not shown: another chain or arm of the molecule; small tags and cut ends)
constant: B1 constant with Y138S, W197Q, F322H

Molecular target: feline FcRn complex (FcRn-α subunit and β-microglobulin) (feline)
Assay: SPR (Biacore), FcRn on SA chip, pH 7.4

| Binder | Kd [nM] |
| --- | --- |
| B1 | 3.35 |
| B2 | 6.48 |
| B3 | 25.3 |
| B4 | 25.8 |
| B5 | 4.46 |
| B6 | 34.1 |
| B7 | 9.98 |
| B8 | 44.8 |
| B9 | 20.7 |
| B10 | 24.4 |
| B11 | 10.7 |
| B12 | 25.6 |
| B13 | 24.6 |
| B14 | 12.9 |
| B15 | 38.9 |
| B16 | 25.6 |
| B17 | 31.3 |
| B18 | 15.7 |
| B19 | 26.5 |
| B20 | 30.3 |
| B21 | 43.1 |
| B22 | 21.9 |
| B23 | 43.6 |

Molecular target: Feline FcRn complex (FcRn-alpha subunit and beta-microglobulin) (feline)
Assay: SPR (Biacore), feline FcRn captured on SA chip, IgG flowed over, pH 6

| Binder | Kd [nM] |
| --- | --- |
| B24 | 5.62 |
| B25 | 6.03 |
| B26 | 5.73 |
| B27 | 6.16 |
| B28 | 3.09 |

Molecular target: feline FcRn complex (FcRn-α subunit and β-microglobulin) (feline)
Assay: SPR (Biacore), FcRn on SA chip, pH 6

| Binder | Kd [nM] |
| --- | --- |
| B1 | 0.011 |
| B2 | 0.0271 |
| B3 | 0.626 |
| B4 | 0.859 |
| B5 | 0.0192 |
| B6 | 0.551 |
| B7 | 0.0249 |
| B8 | 0.885 |
| B9 | 0.188 |
| B10 | 0.732 |
| B11 | 0.488 |
| B12 | 1.55 |
| B13 | 0.394 |
| B14 | 0.365 |
| B15 | 0.923 |
| B16 | 1.3 |
| B17 | 0.974 |
| B18 | 0.0964 |
| B19 | 0.442 |
| B20 | 0.715 |
| B21 | 1.09 |
| B22 | 0.443 |
| B23 | 1.14 |
